# B1: IgG1-AXL-061-vcMMAE (antibody, V domains shown)
# VH: QVQLVQSGAEVKKPGASVKVSCKASGYAFTGYGISWVRQAPGQGLEWIGWISAYNGNTNYVQNLQDRVTMTTDTSTSTAYMELRSLRSDDTAVYYCARDHISMLRGIIIRNYWGQGTLVTVSS
# VL: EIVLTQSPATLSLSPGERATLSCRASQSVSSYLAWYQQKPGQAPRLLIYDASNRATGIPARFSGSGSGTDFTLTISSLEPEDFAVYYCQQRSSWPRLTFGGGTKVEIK
# modifications: vcMMAE alkylated to cysteines of the reduced antibody (positions not given)
# notes: Antibody-drug conjugate of antibody 061 with vcMMAE; IgG1 by name
# B2: IgG1-AXL-061 (antibody, V domains shown)
# VH: QVQLVQSGAEVKKPGASVKVSCKASGYAFTGYGISWVRQAPGQGLEWIGWISAYNGNTNYVQNLQDRVTMTTDTSTSTAYMELRSLRSDDTAVYYCARDHISMLRGIIIRNYWGQGTLVTVSS
# VL: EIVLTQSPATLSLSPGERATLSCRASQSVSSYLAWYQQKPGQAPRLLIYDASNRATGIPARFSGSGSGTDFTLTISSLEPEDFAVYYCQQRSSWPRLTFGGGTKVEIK
# notes: IgG1 by name; Unconjugated antibody
# B3: IgG1-AXL-107-vcMMAE (antibody, V domains shown)
# VH: EVQLLESGGGLVQPGGSLRLSCAASGFTFSSYAMNWVRQAPGKGLEWVSTTSGSGASTYYADSVKGRFTISRDNSKNTLYLQMNSLRAEDTAVYYCAKIWIAFDIWGQGTMVTVSS
# VL: not shown
# notes: also called HuMax-AXL-ADC; IgG1-1021-107-MMAE
# B4: IgG1-AXL-148-vcMMAE (antibody, V domains shown)
# VH: EVQLLESGGGLVQPGGSLRLSCAASGFTFSSYAMTWVRQAPGKGLEWVSAISISGGSTFYADSVKGRFTISRDNSKNTLYLQMNSLRAEDTAVYYCRGYSGYVYDAFDFWGQGTMVTVSS
# VL: DIQMTQSPSSLSASVGDRVTITCRASQGISNWLAWYQQKPEKAPKSLIYAASSLQSGVPSRFSGSGSGTDFTLTISSLQPEDFATYYCQQYNSYPLTFGGGTKVEIK
# modifications: vcMMAE alkylated to cysteines of the reduced antibody (positions not given)
# notes: Antibody-drug conjugate of antibody 148 with vcMMAE; IgG1 by name; also called IgG1-1021-148-MMAE; IgG1-AXL-148-MMAE
# What was measured:
# [1] = target: T1, AXL (human, UniProt P30530 26-447, limits assumed); experiment: not described
# T1 construct: neither the species nor the construct used is stated there; also called human AXL protein; UFO
# T1 sequence (P30530 26-447 limits assumed): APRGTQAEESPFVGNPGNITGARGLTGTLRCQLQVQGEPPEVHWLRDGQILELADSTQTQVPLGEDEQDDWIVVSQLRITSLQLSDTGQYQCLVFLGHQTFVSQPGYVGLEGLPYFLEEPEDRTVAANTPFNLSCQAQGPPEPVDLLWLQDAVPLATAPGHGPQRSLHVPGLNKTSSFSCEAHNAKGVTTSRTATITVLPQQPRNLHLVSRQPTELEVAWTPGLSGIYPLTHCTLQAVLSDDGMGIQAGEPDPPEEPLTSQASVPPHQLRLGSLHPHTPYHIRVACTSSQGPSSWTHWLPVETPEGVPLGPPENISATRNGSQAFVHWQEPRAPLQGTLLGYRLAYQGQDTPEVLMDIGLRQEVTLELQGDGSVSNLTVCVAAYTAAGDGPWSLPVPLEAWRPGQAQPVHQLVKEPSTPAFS
# [2] = target: T1, AXL; experiment: competition with Gas6; assay not described
Binder,binding result [1],binding result [2]
B1,binds,–
B2,–,binds
B3,binds,–
B4,binds,–

# Source: patent US20190233522A1 (Genmab, published 2019)
